Data taken from US20260234738A1.

Tests used:
[1] = biological target: full-length SARS-COV-2 spike protein (amino acids M1-T1273 of NCBI accession number YP_009724390.1) (SARS-CoV-2) (UniProt P0DTC2); assay: cell-based or functional assay
[2] = biological target: high affinity human FcγR3a 176Val allotype receptor (human) (UniProt P08637); assay: cell-based or functional assay
Bt-MERS.hFc (mAb2664-L2) = assay: Luminex beads, supernatant
MERS.hFc (mAb2664-L1) = assay: Luminex beads, supernatant
MERS.mFc (mAb2663-L1) = assay: Luminex beads, supernatant
[3] = biological target: MOD1-SARS-CoV-2 Spike Protein (RBD)(R319-F541).mmH (SARS-CoV-2); assay: Luminex bead binding, antibody supernatant
[4] = biological target: MOD10-SARS-CoV-2 Spike Protein (RBD)(R319-F541).mmH (SARS-CoV-2); assay: Luminex bead binding, antibody supernatant
[5] = biological target: MOD11-SARS-CoV-2 Spike Protein (RBD)(R319-F541).mmH (SARS-CoV-2); assay: Luminex bead binding, antibody supernatant
[6] = biological target: MOD12-SARS-CoV-2 Spike Protein (RBD)(R319-F541).mmH (SARS-CoV-2); assay: Luminex bead binding, antibody supernatant
[7] = biological target: MOD13-SARS-CoV-2 Spike Protein (RBD)(R319-F541).mmH (SARS-CoV-2); assay: Luminex bead binding, antibody supernatant
[8] = biological target: MOD14-SARS-CoV-2 Spike Protein (RBD)(R319-F541).mmH (SARS-CoV-2); assay: Luminex bead binding, antibody supernatant
[9] = biological target: MOD15-SARS-CoV-2 Spike Protein (RBD)(R319-F541).mmH (SARS-CoV-2); assay: Luminex bead binding, antibody supernatant
[10] = biological target: MOD2-SARS-CoV-2 Spike Protein (RBD)(R319-F541).mmH (SARS-CoV-2); assay: Luminex bead binding, antibody supernatant
[11] = biological target: MOD3-SARS-CoV-2 Spike Protein (RBD)(R319-F541).mmH (SARS-CoV-2); assay: Luminex bead binding, antibody supernatant
[12] = biological target: MOD4-SARS-CoV-2 Spike Protein (RBD)(R319-F541).mmH (SARS-CoV-2); assay: Luminex bead binding, antibody supernatant
[13] = biological target: MOD5-SARS-CoV-2 Spike Protein (RBD)(R319-F541).mmH (SARS-CoV-2); assay: Luminex bead binding, antibody supernatant
[14] = biological target: MOD6-SARS-CoV-2 Spike Protein (RBD)(R319-F541).mmH (SARS-CoV-2); assay: Luminex bead binding, antibody supernatant
[15] = biological target: MOD7-SARS-CoV-2 Spike Protein (RBD)(R319-F541).mmH (SARS-CoV-2); assay: Luminex bead binding, antibody supernatant
[16] = biological target: MOD8-SARS-CoV-2 Spike Protein (RBD)(R319-F541).mmH (SARS-CoV-2); assay: Luminex bead binding, antibody supernatant
[17] = biological target: MOD9-SARS-CoV-2 Spike Protein (RBD)(R319-F541).mmH (SARS-CoV-2); assay: Luminex bead binding, antibody supernatant
[18] = biological target: SARS-CoV-2 spike protein, Wuhan-Hu-1 sequence (S-wt), on VSV pseudoparticles (SARS-CoV-2) (UniProt P0DTC2); assay: cell-based or functional assay
[19] = biological target: Bt-SARS-CoV-2 Spike Protein (RBD) (R319-F541).mFc (column 6 of Table 8) (SARS-CoV-2); assay: Luminex beads, supernatant

Chain of high affinity human FcγR3a 176Val allotype receptor (human) (P08637 17-254 F176V): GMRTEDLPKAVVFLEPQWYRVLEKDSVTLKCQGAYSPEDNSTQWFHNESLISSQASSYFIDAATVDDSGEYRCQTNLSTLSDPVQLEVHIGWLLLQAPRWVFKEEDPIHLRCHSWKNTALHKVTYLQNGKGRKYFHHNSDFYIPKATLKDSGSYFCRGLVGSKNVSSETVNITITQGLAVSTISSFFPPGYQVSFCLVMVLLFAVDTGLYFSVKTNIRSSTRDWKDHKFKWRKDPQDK

Substance	ADCC (Activity (%)) [2] [%]	ADCC Mean RLU [2] [RLU]	MFI (MERS.mFc (mAb2663-L1)) [MFI]	binding signal (MFI) [4] [MFI]	binding signal (MFI) [5] [MFI]	binding signal (MFI) [6] [MFI]	binding signal (MFI) [8] [MFI]	binding signal (MFI) [9] [MFI]	binding signal (MFI) [10] [MFI]	binding signal (MFI) [11] [MFI]	binding signal (MFI) [12] [MFI]	binding signal (MFI) [13] [MFI]	binding signal (MFI) [14] [MFI]	binding signal (MFI) [15] [MFI]	binding signal (MFI) [16] [MFI]	binding signal (MFI) [17] [MFI]	other results
IgG1 Control (antibody)																	ADCP Max (% ADCP), Jurkat/hCD20/SARS-CoV-2 Spike cells [1]: 10.4%
mAb10933 (antibody)	68.5	9740	22														MFI (Bt-MERS.hFc (mAb2664-L2)): 26 MFI; MFI (MERS.hFc (mAb2664-L1)): 21 MFI
mAb10934 (antibody)		11700	77	30400	30700	32900	28600	27800	27700	25100	31700	6650	30800	29900	6410	31300	binding signal (MFI) [3]: 81 MFI; binding signal (MFI) [7]: 30500 MFI
mAb10987 (antibody)	29.4	12000															Relative neutralization at 5 µg/ml [18]: 100%
mAb10989 (antibody)	21.5	10200		15500	16800	15100	18100	15900	16700	18300	15800	3370	19600	15200	6140	17800	MFI [19]: 16100 MFI
